Laboratory results from paper PMC8431773, “Novel Cold-Adapted Recombinant Laccase KbLcc1 from Kabatiella bupleuri G3 IBMiP as a Green Catalyst in Biotransformation” (International Journal of Molecular Sciences, 2021).

Key:
Test in all cases: purified protein
[1] = substrate: COc1ccccc1O; settings: pH 5.5, 30 °C, 2.5-20.0 mM substrate
[2] = substrate: CCn1c(=NN=c2sc3cc(S(=O)(=O)O)ccc3n2CC)sc2cc(S(=O)(=O)O)ccc21; assay type: biochemical, Aureobasidium bupleuri; settings: pH 3.5, 30 °C, 0.2-4.0 mM substrate
[3] = substrate: COc1cc(C=NN=Cc2cc(OC)c(O)c(OC)c2)cc(OC)c1O; assay type: biochemical, Aureobasidium bupleuri; settings: pH 7.0, 30 °C, 5.5-40.0 µM substrate
[4] = substrate: COc1cc(/C=C/C(=O)O)cc(OC)c1O; assay type: biochemical, Aureobasidium bupleuri; settings: pH 6.5 (abstract prints optimum pH 6.0), 30 °C, 3.0-150 µM substrate

B1: KbLcc1 (Aureobasidium bupleuri) (protein)
chain: MHLQKLSGLCLLAFASVSWADAVPGDRYLWGADRMGKMVRRATTTSKASSTTAKASTSSVKTSSVSSASSKSSSNIVASVSSSPPASSASSASSTSSLVADAACTHGPNSRACWGNGYSIKTDFDLKHPTTGNTVTYNLEITNTTCNPDGNGDMPCYLINNQFPGPTIVADWGDKVIINVKNSLQNNGTSLHWHGVRQLSSVGSDGVGGITECPIAPGQSRTYSFLATQFGTSWYHSHYSSQYGMGVVGQVVINGPSSSNYDIDLGTFPITDLYYGLANNVNEMTLHNLQNNLPPPDGSNILVNGKGKSAKGGSYSQMSLTKGKKHRLRLINTSVDNAVRVKLDGHSFTVMSADFIPIKPLTNQGWILLAVGQRYDVVFTANQTPGNYFFRAEVATDCFSGNTGKGRALFTYSEVTAAEPTDSNEVAPTNGCTELNTVPYWTQAVDQSQYAAQVKTLKTGVAPGLTTNGQNFALWNLDTRAMMVRWDRPTIQYVFEGNTSYPDPYAVIEIPTEGTWTYWLIQMGPQNPPLPHPIHLHGHDFFVLGSGAGTFDATTAVLNFANPPRRDTSILPGLGWLLISFPANNPGIWLMHCHIAWHISEGLGVQFIEAKNSIAMPDKTTFNAECDSWRTYSKNMAWPQIDSGL
notes: full ORF of 649 residues (1938 bp, intron removed) cloned from its own ATG behind alpha-factor secretion signal (pPINKalpha-HF); tag not given; secreted from Pichia pastoris (PichiaPink strain 1)
For B1, which Km [1] is on record?
The Km was 13.28 mM.

And the Vmax [1]?
Its Vmax is 4.7 µmol/min/mg.

What about the kcat [1] of the same protein?
The kcat was 5.45 s⁻¹.

And the kcat/Km [1]?
The kcat/Km was 410 M⁻¹ s⁻¹.

What about the Km [2] of the same protein?
Its Km is 0.580 mM.

And the Vmax [2]?
Its Vmax is 34.2 µmol/min/mg.

What about the kcat [2] of the same protein?
The kcat was 39.6 s⁻¹.

And the kcat/Km [2]?
The kcat/Km was 68400 M⁻¹ s⁻¹.

And the Km [3]?
Its Km is 0.021 mM.

What about the Vmax [3] of the same protein?
The Vmax was 33 µmol/min/mg.

And the kcat [3]?
Its kcat is 38.3 s⁻¹.

What about the kcat/Km [3] of the same protein?
The kcat/Km was 1.81e+06 M⁻¹ s⁻¹.

And the Km [4]?
Its Km is 0.015 mM.

What about the Vmax [4] of the same protein?
The Vmax was 1.39 µmol/min/mg.

And the kcat [4]?
The kcat was 1.61 s⁻¹.

What about the kcat/Km [4] of the same protein?
Its kcat/Km is 109000 M⁻¹ s⁻¹.
